In patent US20230322893A1, “CD47 BINDER AND LIPOSOME COMPLEX FOR CANCER TREATMENT” (priority 2020, published 2023):

Molecular target: recombinant CD47 protein (Homo sapiens, UniProt Q08722)
Experiment: SPR, CD47 conjugated to CM5 chip by EDC-NHS
Type: binding
Settings: CM5 chip, CD47 250 RU, 30 µL/minutes
Protocol: Specifically, the recombinant CD47 protein was conjugated to the surface of the CM5 chip by a target SPR reaction of 250 RU through an EDC-NHS reaction to be used, and for HBS-P, the sensogram obtained through a process of association for 3 minutes and dissociation for 10 minutes at a flow rate of 30 µL/minutes was analyzed with the BiaEvaluation software using a 1:1 binding model and global fitting.

Sequence of recombinant CD47 protein (Q08722 19-323): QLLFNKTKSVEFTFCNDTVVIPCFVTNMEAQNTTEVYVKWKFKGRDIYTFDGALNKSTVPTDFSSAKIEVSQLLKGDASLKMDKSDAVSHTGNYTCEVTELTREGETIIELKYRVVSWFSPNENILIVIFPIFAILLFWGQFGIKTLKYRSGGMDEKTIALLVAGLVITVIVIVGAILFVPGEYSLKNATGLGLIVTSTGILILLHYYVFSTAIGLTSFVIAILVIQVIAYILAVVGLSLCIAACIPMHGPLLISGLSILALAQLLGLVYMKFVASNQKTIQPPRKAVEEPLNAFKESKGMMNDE

Substance: Sirpα: pure Sirpα (SEQ ID NO: 25), water-soluble domain of the original CD47 ligand [reference compound]
- ka: 610000 M⁻¹ s⁻¹
- kd: 0.37 s⁻¹
